Laboratory results: publication PMC3206593 (Bioorganic & medicinal chemistry, 2011)
Positions of bridges follow the written chain, without caps; N, C: chain ends. No end group written: not given here.

T1: Aurora A (Homo sapiens, UniProt O14965)
T1 sequence (O14965 1-403): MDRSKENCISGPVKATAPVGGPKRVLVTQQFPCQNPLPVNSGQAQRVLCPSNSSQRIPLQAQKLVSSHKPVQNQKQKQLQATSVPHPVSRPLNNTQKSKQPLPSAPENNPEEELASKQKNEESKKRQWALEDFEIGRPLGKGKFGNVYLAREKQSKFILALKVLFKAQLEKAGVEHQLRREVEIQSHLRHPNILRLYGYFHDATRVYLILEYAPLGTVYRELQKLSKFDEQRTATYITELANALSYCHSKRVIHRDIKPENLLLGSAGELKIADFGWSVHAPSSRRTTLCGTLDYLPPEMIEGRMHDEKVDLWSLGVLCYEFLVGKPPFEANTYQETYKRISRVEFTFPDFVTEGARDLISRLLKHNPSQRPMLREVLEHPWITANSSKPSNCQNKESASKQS

T2: (CTRPWWLC)G cyclic peptide (disulfide 1-8 (inferred))
T2 chain: CTRPWWLCG-NH2

B1: Aurora kinase A (protein)
chain: MDRSKENCISGPVKATAPVGGPKRVLVTQQFPCQNPLPVNSGQAQRVLCPSNSSQRIPLQAQKLVSSHKPVQNQKQKQLQATSVPHPVSRPLNNTQKSKQPLPSAPENNPEEELASKQKNEESKKRQWALEDFEIGRPLGKGKFGNVYLAREKQSKFILALKVLFKAQLEKAGVEHQLRREVEIQSHLRHPNILRLYGYFHDATRVYLILEYAPLGTVYRELQKLSKFDEQRTATYITELANALSYCHSKRVIHRDIKPENLLLGSAGELKIADFGWSVHAPSSRRTTLCGTLDYLPPEMIEGRMHDEKVDLWSLGVLCYEFLVGKPPFEANTYQETYKRISRVEFTFPDFVTEGARDLISRLLKHNPSQRPMLREVLEHPWITANSSKPSNCQNKESASKQS

How the values were obtained:
[1] = target: T1, Aurora A; conditions: at a concentration of 100 μM; peptide appended to the helices; cited from earlier work
[2] = target: T2, (CTRPWWLC)G cyclic peptide; assay: radiometric kinase kinetic assay

Row | Molecule | inhibition of Aurora A [1] [%] | Ki [2] [µM]
1 | GRRVVVSFAWD | 35 | 
2 | B1 |  | 31
